# T1: Tat47-58 peptide (HIV-1 Tat) (HIV-1)
# T1 chain: YGRKKRRQRRRP
# Key:
# [1] = target: T1, Tat47-58 peptide (HIV-1 Tat); assay: EMSA; capillary electrophoresis mobility shift; TK buffer 0.5 mM MgCl2; peptide 0.1-1.6 mM as printed; conditions: protein: synthetic; label: 5'-fluorescein; hairpin
# [2] = target: T1, Tat47-58 peptide (HIV-1 Tat); assay: EMSA; TK buffer: 50 mM Tris-HCl pH 7.4, 20 mM KCl, 0.5 mM MgCl2, 0.1% Triton X-100; peptide 0.1-1.6 uM; annealed from 90 C to 24 C; gel at 4 C; conditions: protein: synthetic; label: 5'-fluorescein, 3'-32P cytidine bisphosphate; hairpin
Binder,binding result [1],binding result [2]
GGCAGAUCUGAGCCUGGGAGCUCUCUGCC (ssRNA) [HIV-1 TAR RNA oligonucleotide (fluorescein only)],binds,–
GGCAGAUCUGAGCCUGGGAGCUCUCUGCC (ssRNA) [HIV-1 TAR RNA oligonucleotide],–,binds

# — patent US20060257866, “Methods for identifying small molecules that modulate premature translation termination and nonsense mediated mrna decay” (published 2006)
